# In FireProtDB (doi:10.1016/j.jmb.2004.06.010):
# Values joined by “and” are separate entries in the source; they are usually repeats but may differ in a detail not shown here. Identical values can stand only once.
# B1: Alpha-lactalbumin, P00712 (parent)
# chain: MMSFVSLLLVGILFHATQAEQLTKCEVFQKLKDLKDYGGVSLPEWVCTAFHTSGYDTQAIVQNNDSTEYGLFQINNKIWCKDDQNPHSRNICNISCDKFLDDDLTDDIVCAKKILDKVGINYWLAHKALCSEKLDQWLCEKL
# Variants of: B1
# Conditions: Capra hircus, pH 7, 25 °C, GdnHCl, CD, sodium cacodylate 50 mM, NaCl 50 mM, structure 1HFY, whole UniProt chain shown
Variant,denaturant m value,denaturant midpoint (higher = more stable),unfolding free energy,denaturant m value (transition: 3),denaturant midpoint (higher = more stable) (transition: 3),unfolding free energy (transition: 3)
Y122F,1.82 kcal/mol/M,1.76 M,3.2 kcal/mol,1.3 kcal/mol/M and 0.52 kcal/mol/M,1.64 M and 2.07 M,2.13 kcal/mol and 1.08 kcal/mol
L129A,2.29 kcal/mol/M,2.38 M,5.45 kcal/mol,1.69 kcal/mol/M and 0.6 kcal/mol/M,–,–
W79A,2.4 kcal/mol/M,1.59 M,3.82 kcal/mol,1.79 kcal/mol/M and 0.61 kcal/mol/M,1.58 M and 1.65 M,2.82 kcal/mol and 1 kcal/mol
V109A,2.22 kcal/mol/M,2.99 M,6.63 kcal/mol,1.64 kcal/mol/M and 0.58 kcal/mol/M,3.5 M and 1.54 M,–
I108V,1.95 kcal/mol/M,2.33 M,4.54 kcal/mol,1.3 kcal/mol/M and 0.65 kcal/mol/M,2.95 M and 1.09 M,–
I74V,–,–,–,0.62 kcal/mol/M and 0.75 kcal/mol/M,2.38 M and 1.04 M,1.48 kcal/mol and 0.78 kcal/mol
L31A,2.6 kcal/mol/M,1.21 M,3.17 kcal/mol,–,1.37 M and 0.62 M,–
L71A,2.03 kcal/mol/M,1.15 M,2.34 kcal/mol,1.52 kcal/mol/M and 0.51 kcal/mol/M,1.16 M and 1.13 M,–
V46A,2.7 kcal/mol/M,1.81 M,4.88 kcal/mol,1.9 kcal/mol/M and 0.8 kcal/mol/M,2.17 M and 0.94 M,–
D106N,2.18 kcal/mol/M,2.07 M,4.51 kcal/mol,0.72 kcal/mol/M,1.49 M,1.08 kcal/mol
V27A,2.1 kcal/mol/M,2.26 M,4.74 kcal/mol,1.48 kcal/mol/M,2.76 M,4.1 kcal/mol
K112A,2.12 kcal/mol/M,1.83 M,3.88 kcal/mol,1.51 kcal/mol/M and 0.61 kcal/mol/M,2.07 M and 1.24 M,–
L124A,–,–,–,2 kcal/mol/M and 0.74 kcal/mol/M,2.55 M and 1.22 M,–
I114V,1.92 kcal/mol/M,1.92 M,3.69 kcal/mol,1.21 kcal/mol/M and 0.71 kcal/mol/M,2.46 M and 1 M,–
W137F,2.12 kcal/mol/M,2.49 M,5.27 kcal/mol,–,–,–
L115A,1.72 kcal/mol/M,2 M,3.44 kcal/mol,1.09 kcal/mol/M and 0.63 kcal/mol/M,–,–
